Earlier results in paper PMC6518430.

Columns and labels:
[1] = target: IL-12Rβ1 (Homo sapiens) (UniProt P42701)
[2] = target: IL-23R (Homo sapiens) (UniProt Q5VWK5)
IL-23R (Homo sapiens), sequence (Q5VWK5 24-355): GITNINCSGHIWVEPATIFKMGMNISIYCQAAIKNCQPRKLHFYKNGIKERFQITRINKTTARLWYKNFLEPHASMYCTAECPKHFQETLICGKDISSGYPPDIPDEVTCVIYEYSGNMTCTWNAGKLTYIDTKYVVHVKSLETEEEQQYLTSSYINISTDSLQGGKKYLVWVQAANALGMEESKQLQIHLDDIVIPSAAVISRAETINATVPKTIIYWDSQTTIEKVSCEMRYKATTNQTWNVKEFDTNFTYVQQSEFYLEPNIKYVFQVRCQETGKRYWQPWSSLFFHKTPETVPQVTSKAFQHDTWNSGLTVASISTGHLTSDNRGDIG

IL-23, sequence (Q9NPF7 20-189): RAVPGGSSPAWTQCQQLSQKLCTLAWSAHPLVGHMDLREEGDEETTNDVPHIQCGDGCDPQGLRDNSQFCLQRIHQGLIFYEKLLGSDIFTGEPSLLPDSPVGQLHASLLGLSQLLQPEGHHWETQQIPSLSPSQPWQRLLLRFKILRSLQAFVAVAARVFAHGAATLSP
IL-23, sequence (P29460 23-328, further chain): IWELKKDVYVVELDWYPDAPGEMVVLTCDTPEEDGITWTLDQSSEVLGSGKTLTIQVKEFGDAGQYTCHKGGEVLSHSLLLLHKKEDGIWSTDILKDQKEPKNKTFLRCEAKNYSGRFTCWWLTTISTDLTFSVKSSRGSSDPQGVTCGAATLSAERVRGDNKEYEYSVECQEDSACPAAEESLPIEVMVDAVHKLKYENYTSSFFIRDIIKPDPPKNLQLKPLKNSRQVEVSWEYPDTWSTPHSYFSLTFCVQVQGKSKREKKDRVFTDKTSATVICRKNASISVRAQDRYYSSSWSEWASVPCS

Question: What does the source list for IL-23 (from UniProt Q9NPF7)?
Answer: Kd [1]: 2000 nM; Kd [2]: 44 nM
